Laboratory results taken from patent US20150320880A1, “ANTIBODY DRUG CONJUGATES” (NOVARTIS AG, priority 2013, published 2015).
Where a chain is given by its changes, count along the chain named.

T1: Mouse cKIT ECD, C-terminal 6x His (Sino Biological Inc, catalog number 50530-M08H) (mouse, UniProt P05532 25-527)
T1 construct: extracellular domain; Bought protein
T1 sequence (looked up): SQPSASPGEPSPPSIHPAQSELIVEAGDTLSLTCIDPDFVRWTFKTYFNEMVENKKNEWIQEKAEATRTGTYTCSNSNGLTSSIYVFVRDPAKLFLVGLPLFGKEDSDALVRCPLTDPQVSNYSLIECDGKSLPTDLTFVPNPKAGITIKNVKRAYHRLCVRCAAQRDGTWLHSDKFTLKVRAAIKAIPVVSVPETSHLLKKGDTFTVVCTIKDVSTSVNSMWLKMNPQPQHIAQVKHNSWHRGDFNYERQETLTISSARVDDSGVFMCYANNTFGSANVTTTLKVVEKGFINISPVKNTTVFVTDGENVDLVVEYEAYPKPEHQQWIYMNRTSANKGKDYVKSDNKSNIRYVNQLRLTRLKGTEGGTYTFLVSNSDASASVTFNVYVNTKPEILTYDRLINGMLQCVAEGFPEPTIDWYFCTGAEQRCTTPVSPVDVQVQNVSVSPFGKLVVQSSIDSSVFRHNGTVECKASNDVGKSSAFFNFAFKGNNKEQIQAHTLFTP

T2: Rat cKIT D1-5 (residues 25-526, C-terminal mFc) (rat)
T2 construct: The entry includes the linker and mouse Fc tag; also called rat cKIT-mFc
T2 chain: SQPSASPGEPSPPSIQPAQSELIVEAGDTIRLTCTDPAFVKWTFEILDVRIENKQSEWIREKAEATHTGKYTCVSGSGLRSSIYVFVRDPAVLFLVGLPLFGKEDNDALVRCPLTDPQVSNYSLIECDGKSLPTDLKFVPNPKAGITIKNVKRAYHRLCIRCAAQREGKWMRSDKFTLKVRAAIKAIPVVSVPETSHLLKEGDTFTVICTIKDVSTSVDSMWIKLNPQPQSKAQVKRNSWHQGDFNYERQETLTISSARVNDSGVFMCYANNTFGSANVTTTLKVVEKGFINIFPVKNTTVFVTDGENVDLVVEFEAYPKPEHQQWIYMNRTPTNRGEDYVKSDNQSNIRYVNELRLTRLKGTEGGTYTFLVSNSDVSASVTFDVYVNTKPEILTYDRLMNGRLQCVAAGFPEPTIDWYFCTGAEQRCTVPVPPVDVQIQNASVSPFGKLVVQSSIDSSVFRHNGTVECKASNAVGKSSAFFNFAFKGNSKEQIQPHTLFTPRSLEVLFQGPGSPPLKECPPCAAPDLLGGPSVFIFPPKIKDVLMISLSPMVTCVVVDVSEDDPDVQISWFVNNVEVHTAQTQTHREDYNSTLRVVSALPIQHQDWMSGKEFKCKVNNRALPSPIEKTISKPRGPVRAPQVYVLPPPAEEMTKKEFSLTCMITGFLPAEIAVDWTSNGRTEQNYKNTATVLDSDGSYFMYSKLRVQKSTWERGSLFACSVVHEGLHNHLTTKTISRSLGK

T3: Cynomolgus monkey cKIT D1-5 (residues 25-520, C-terminal His tag) (cynomolgus monkey, UniProt P10721 25-520 (human entry))
T3 construct: the signal peptide was not part of the protein in the assay; also called cyno cKIT; cynomolgus monkey ECD
T3 chain: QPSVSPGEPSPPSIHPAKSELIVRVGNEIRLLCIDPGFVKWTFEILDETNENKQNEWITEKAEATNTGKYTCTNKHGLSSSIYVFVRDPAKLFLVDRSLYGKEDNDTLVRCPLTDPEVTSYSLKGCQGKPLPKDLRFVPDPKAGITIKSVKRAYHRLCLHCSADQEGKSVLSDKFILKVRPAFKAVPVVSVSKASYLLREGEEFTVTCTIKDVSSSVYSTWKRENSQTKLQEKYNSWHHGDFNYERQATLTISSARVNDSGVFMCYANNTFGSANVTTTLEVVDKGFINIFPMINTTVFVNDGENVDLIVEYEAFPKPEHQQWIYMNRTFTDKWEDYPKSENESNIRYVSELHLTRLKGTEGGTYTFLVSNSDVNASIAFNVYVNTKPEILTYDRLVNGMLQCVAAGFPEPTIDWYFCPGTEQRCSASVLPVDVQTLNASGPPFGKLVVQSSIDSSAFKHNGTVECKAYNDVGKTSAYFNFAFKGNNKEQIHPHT

B1: NEG086 (antibody, human IgG1, kappa, V domains shown)
VH: EVQLVESGGGLVQPGGSLRLSCAASGFTFSDYYMAWVRQAPGKGLEWVANINQIAGSTYYVDSVQGRFTISRDNAKNSLYLQMNSLRAEDTAVYYCARGDYYGTTYWYFDVWGQGTTVTVSS
VL: DIQMTQSPSSLSASVGDRVTITCRASQSISSYLNWYQQKPGKAPKLLIYYTSRLQSGVPSRFSGSGSGTDFTLTISSLQPEDFATYYCQQGRRLWSFGGGTKVEIKR
notes: Humanized, optimized variant of 9P3; human IgG1 kappa
B2: NEG085 (antibody, human IgG1, kappa, V domains shown)
VH: B1 VH with T28A, D31G, Q53Y, I54P, A55G, G56S, V61L, Q65K
VL: B1 VL
notes: Humanized, optimized variant of 9P3; human IgG1 kappa; also called unconjugated NEG085
B3: NEG085-MCC-DM1 (antibody, human IgG1, kappa, V domains shown)
VH: B1 VH with T28A, D31G, Q53Y, I54P, A55G, G56S, V61L, Q65K
VL: B1 VL
modifications: DM1 linked through the MCC (SMCC) linker to primary amines of the antibody, sites not stated; DM1 linked through the MCC (SMCC) linker to primary amines of the antibody, sites not stated; average MAR 3.5 (Table 7)
notes: Antibody drug conjugate of NEG085
B4: 20376 (antibody, human IgG1, lambda, V domains shown)
VH: QVQLVQSGAEVKKPGSSVKVSCKASGGTFSSYAISWVRQAPGQGLEWMGGIIPMSGRTTYAQKFQGRVTITADESTSTAYMELSSLRSEDTAVYYCARDYGPEAPDYGQSTSYFWYYAFDPWGQGTLVTVSS
VL: DIELTQPPSVSVSPGQTASITCSGDNIPSYFVHWYQQKPGQAPVLVIYDDNDRPSGIPERFSGSNSGNTATLTISGTQAEDEADYYCSSWDQDTVVFGGGTKLTVLG
notes: human IgG1 lambda
B5: NEG024 (antibody, human IgG1, kappa, V domains shown)
VH: B1 VH with V61L, Q65R
VL: EIVMTQSPATLSLSPGERATLSCRASQDISNYLNWYQQKPGQAPRLLIYYTSRLQSGIPARFSGSGSGTDYTLTISSLEPEDFAVYYCQQGKKLWSFGGGTKVEIKR
notes: as for B1
B6: NEG086-MCC-DM1 (antibody, human IgG1, kappa, V domains shown)
VH: B1 VH
VL: B1 VL
modifications: DM1 linked through the MCC (SMCC) linker to primary amines of the antibody, sites not stated; DM1 linked through the MCC (SMCC) linker to primary amines of the antibody, sites not stated; average MAR 3.5 (Table 7)
notes: Antibody drug conjugate of NEG086
B7: NEG027: anti-cKIT antibody of Table 1; VH SEQ ID NO 64, VL SEQ ID NO 73 (antibody, V domains shown)
VH: B1 VH with N50S, I54N, A55T, V61L, Q65R
VL: EIVMTQSPATLSLSPGERATLSCRASQDISNYLNWYQQKPGQAPRLLIYYTSRLQSGIPARFSGSGSGTDYTLTISSLEPEDFAVYYCQQGKKLWSFGGGTKVEIK
B8: NEG086: anti-cKIT antibody of Table 1; VH SEQ ID NO 100, VL SEQ ID NO 109 (antibody, V domains shown)
VH: B1 VH
VL: DIQMTQSPSSLSASVGDRVTITCRASQSISSYLNWYQQKPGKAPKLLIYYTSRLQSGVPSRFSGSGSGTDFTLTISSLQPEDFATYYCQQGRRLWSFGGGTKVEIK
B9: NEG087: anti-cKIT antibody of Table 1; VH SEQ ID NO 118, VL SEQ ID NO 127 (antibody, V domains shown)
VH: B1 VH with N50S, I54N, A55T, V61L, Q65R
VL: B8 VL
B10: NEG026: anti-cKIT antibody of Table 1; VH SEQ ID NO 46, VL SEQ ID NO 55 (antibody, V domains shown)
VH: B1 VH with I54N, A55T
VL: B7 VL

Key:
[1] = molecular target: T1, Mouse cKIT ECD, C-terminal 6x His (Sino …); assay: SPR (Biacore 2000), antibody captured on anti-human Fc
[2] = molecular target: T2, Rat cKIT D1-5 (residues 25-526, …); assay: as above
[3] = molecular target: T4, Human cKIT D1-5 (human cKIT tr. variant 2, residues 26-520, C-terminal His tag) (human, UniProt P10721 26-524); assay: SPR (Biacore T100), CM5 chip, method as in Example 7; unconjugated antibody
T4 construct: also called human cKIT ECD; Human c-Kit ECD

[4] = molecular target: T4, Human cKIT D1-5 (human cKIT tr. variant …); assay: SPR (Biacore 2000), antibody captured on anti-human Fc, cKIT ECD as analyte, 25 C, 1:1 fit
[5] = molecular target: T3, Cynomolgus monkey cKIT D1-5 (residues …); assay: as above
[6] = molecular target: T4, Human cKIT D1-5 (human cKIT tr. variant …); assay: SPR (Biacore T100), CM5 chip, method as in Example 7; MCC-DM1 conjugate
[7] = molecular target: T1, Mouse cKIT ECD, C-terminal 6x His (Sino …); assay: SPR (Biacore 2000), antibody captured on anti-human Fc, cKIT ECD as analyte, 25 C, 1:1 fit
human cKIT ECD = molecular target: T5, human cKIT ECD (Homo sapiens, UniProt P10721); assay: SPR (Biacore 2000) affinity measurement; assay type: binding; conditions: 25° C.
T5 construct: Human cKIT tr. variant 2, residues 26-520-TAG; made in house; host or cells: HEK293 derived cell lines (293FS), transient transfection
Method: (§1) Affinity of the antibodies to cKIT species orthologues and also to cKIT was determined using SPR technology using a Biacore® 2000 instrument (GE Healthcare, Pittsburgh, Pa.) and with CM5 sensor chips.
(§2) Briefly, HBS-P (0.01 M HEPES, pH 7.4, 0.15 M NaCl, 0.005% Surfactant P20) supplemented with 2% Odyssey® blocking buffer (Li-Cor Biosciences, Lincoln, Nebr.) was used as the running buffer for all the experiments. The immobilization level and analyte interactions were measured by response unit (RU). Pilot experiments were performed to test and confirm the feasibility of the immobilization of the anti-human Fc antibody (Catalog number BR100839, GE Healthcare, Pittsburgh, Pa.) and the capture of the test antibodies.
(§3) For kinetic measurements, the experiments were performed in which the antibodies were captured to the sensor chip surface via the immobilized anti-human Fc antibody and the ability of the cKIT proteins to bind in free solution was determined Briefly, 25 μg/ml of anti-human Fc antibody at pH 5 was immobilized on a CM5 sensor chip through amine coupling at flow rate of 5 μl/minute on all two flow cells to reach 10,500 RUs. 0.1-1 μg/ml of test antibodies were then injected at 10 μl/min for 1 minute. Captured levels of the antibodies were generally kept below 200 RUs. Subsequently, 3.125-50 nM of cKIT receptor extracellular domains (ECD) were diluted in a 2-fold series and injected at a flow rate of 40 μl/min for 3 min over both reference and test flow cells. Table of tested ECDs is listed below. Dissociation of the binding was followed for 10 min. After each injection cycle, the chip surface was regenerated with 3 M MgCl2 at 10 μl/min for 30 s.

mouse cKIT ECD = assay: SPR (Biacore 2000) affinity measurement; assay type: binding; conditions: 25° C.
Method: as §1, §2, §3

T4 sequence (P10721 other isoform, or with tags, fused parts or gaps mutant limits assumed): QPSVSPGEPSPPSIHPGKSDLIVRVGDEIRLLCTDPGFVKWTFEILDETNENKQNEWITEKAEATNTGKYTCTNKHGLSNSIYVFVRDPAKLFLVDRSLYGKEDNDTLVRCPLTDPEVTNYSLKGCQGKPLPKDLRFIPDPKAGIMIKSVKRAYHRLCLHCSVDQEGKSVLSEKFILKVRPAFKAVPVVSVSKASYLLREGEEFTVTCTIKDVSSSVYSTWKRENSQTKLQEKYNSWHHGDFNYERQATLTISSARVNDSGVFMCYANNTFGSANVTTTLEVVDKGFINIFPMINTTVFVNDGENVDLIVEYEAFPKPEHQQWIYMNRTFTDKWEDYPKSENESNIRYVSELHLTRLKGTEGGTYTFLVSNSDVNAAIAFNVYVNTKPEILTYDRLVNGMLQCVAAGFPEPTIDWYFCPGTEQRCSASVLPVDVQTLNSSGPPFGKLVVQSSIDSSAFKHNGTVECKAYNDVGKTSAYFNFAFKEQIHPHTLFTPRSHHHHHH
T5 sequence (P10721 with tags, fused parts or gaps isoform P10721-2): as the sequence (P10721 other isoform, or with tags, fused parts or gaps mutant limits assumed) above

Molecule | binding result [1] | binding result [2] | Kd [3] [nM] | Kd [4] [nM] | Kd [5] [nM] | Affinity human cKIT (nM) (human cKIT ECD) | Affinity mouse cKIT (nM) (mouse cKIT ECD) | other results
B1 | no binding (tested: 3.125-50 nM of cKIT ECD injected) | no binding (tested: 3.125-50 nM of cKIT ECD injected) | 1.4 | 1.44 | 1.34 |  |  | 
B2 | no binding (tested: 3.125-50 nM of cKIT ECD injected) | no binding (tested: 3.125-50 nM of cKIT ECD injected) | 4.2 | 8.4 | 6.14 |  |  | 
B3 |  |  |  |  |  |  |  | Kd [6]: 5.2 nM
B4 |  | no binding (tested: 3.125-50 nM of cKIT ECD injected) | 9.1 | 9.1 | 4.8 |  |  | Kd [7]: 2.5 nM
B5 | no binding (tested: 3.125-50 nM of cKIT ECD injected) | no binding (tested: 3.125-50 nM of cKIT ECD injected) | 1.3 | 1.31 | 1.15 |  |  | 
B6 |  |  |  |  |  |  |  | Kd [6]: 1.8 nM
B7 |  |  |  |  |  | nanomolar level | Not reactive | 
B8 |  |  |  |  |  | nanomolar level | Not reactive | 
B9 |  |  |  |  |  | nanomolar level | Not reactive | 
B10 |  |  |  |  |  |  | Not reactive | 
